Series [1] deals with Collagenase Type I (Clostridium histolyticum). In words: In vitro degradation of peptide-PCL samples with collagenase. The class given is in vitro ADME. Conditions: 37°C, mean ± SD; for Mass loss in collagenase: 2 mg/mL collagenase in ZB, 21 days, washed, lyophilized, weighed, n = 4; for Cumulative Cy3 release / Cumulative Cy3 release as % of the total Cy3 in the sample: 10 mm solvent-cast disks, 2 mg/mL collagenase in 1X ZB, 5% CO2, 21 days, fluorescence ex 550/em 580 nm, n = 6. The protocol:
(§1) Samples were pinned to silicone elastomer‐coated 24‐well plates using 0.1 mm dissection pins. The degradation behavior of the samples in the presence of collagenase was assessed by immersing pinned samples in 2 mg/mL collagenase in 1X Zymogram Developing Buffer (ZB). Solutions (1 mL) were collected and changed after the first day of incubation then after every 3–4 days. Samples were placed in an incubator (37°C, 5% CO2) for up to 21 days. Samples were also exposed to ZB as a baseline control.
(§2) Samples were weighed before and after 21 days of incubation with ZB or collagenase. After the 21‐day incubation period, samples were collected and washed three times with ultrapure water to remove residual enzymes or salts. Following washing, samples were lyophilized and subsequently weighed to determine the final mass. Percent mass loss was calculated based on the difference between initial and final masses.

Series [2] is classed as in vitro ADME. The protocol:
as §1, §2

Series [3] concerns multiple cell types. As to conditions: prior peptide screening methods; cited from earlier work. From the text:
We also included a scrambled version of Fast (LTRLMEKRRKV; ScrFast) in which the positions of uncharged amino acids (L, M, V) were exchanged with the charged amino acids (E, K, R). We quantified degradation of these four peptides with different mac ...

Consider “CK(Cy3)KRVKRRL↓LMETC [Fast‐PCL, linear PCL‐PEG‐peptide‐PEG‐PCL conjugate of Cy3‐modified Fast with maleimide‐functionalized PCL (25 kDa) / PEG (5 kDa); tested as solvent‐cast disks with RGDS‐PCL]”, for which, in series [1], the “Mass loss in collagenase” value is recorded as 22.1% ± 1.2%, the “Cumulative Cy3 release” value came to 20.38 ± 2.17 nmol and the “Cumulative Cy3 release as % of the total Cy3 in the sample” value is given as 25.77% ± 3.70%. Also, the “Mass loss in ZB” value in series [2] is listed as 16.5% ± 1.6%.

Regarding PPDKTSPEPA [Control], in series [3], the “Peptide degradation behavior in prior peptide screening” value was “negligible degradation behavior”.

As for “CK(Cy3)LTRLMEKRRKVC [ScrFast‐PCL, linear PCL‐PEG‐peptide‐PEG‐PCL conjugate of Cy3‐modified ScrFast; tested as solvent‐cast disks with RGDS‐PCL]”, in series [1], the “Mass loss in collagenase” value was 18.9% ± 3.8%, the “Cumulative Cy3 release” value was 8.70 ± 0.92 nmol and the “Cumulative Cy3 release as % of the total Cy3 in the sample” value is given as 11.31% ± 1.01%. Also, the “Mass loss in ZB” value in series [2] is reported as 15.2% ± 7.8%.

(Values after article PMC13378486, “Design and Synthesis of Peptide‐Polyester Conjugates for Cell‐Mediated Scaffold Degradation” (Advanced Healthcare Materials, 2026).)
